Assays:
Plk1 [1] = biological target: Plk1 (UniProt P53350); assay: GFP-trap co-IP of Myc-Plk1; details: reference: GFP-B-Myb wild type; sites T476
Plk1 [2] = biological target: Plk1 (UniProt P53350); assay: GST-Plk1 pull-down from cell lysate; details: reference: wild type; sites T476

Row | Substance | binding against the reference (Plk1 [1]) | binding against the reference (Plk1 [2])
1 | B-Myb (from UniProt P10244) GFP-B-Myb T476A | lost | –
2 | B-Myb (from UniProt P10244) T476A | – | lost
